≈ marks a conversion by molar mass, not a printed value. Read-outs that look alike come from different tables or passages of the source. Where a SMILES comes first, the peptide text is derived from it. [ ]: non-standard residue; d: D form. The star is where a group is joined. Dolaproine = CO[C@@H]([C@@H]1CCCN1)[C@@H](C)C(=O)O; Dil = CC[C@H](C)[C@H](NC)[C@@H](CC(=O)O)OC; NMe2Val = CC(C)[C@@H](C(=O)*)N(C)C; NMeV = CN[C@H](C(=O)O)C(C)C Where only a bound is given, the exact number is not on record here.

One assay deals with SKBr3 cells. The assay is described as follows: Cell killing assay (MTS), SKBr3 cells. In kind it is cell-based, human. On the procedure: SKBr3, human breast cancer cell line, high HER2 expression levels, up to 1,000,000 receptors per cell [Lazar G A, et al Proc Natl Acad Sci USA. […] When confluency was 70-80%, cells were washed with PBS (2×10 ml) and incubated with trypsin for 5-7 min. Complete media was added and the cells were resuspended by pipetting. The cells were recovered by centrifugation (2 min, 2000 rpm), the supernatant was discarded, and the cells were resuspended in complete DMEM (5 ml). The cells were then counted using a haemocytometer and diluted accordingly. They were plated at 4500 cells/well (200 μl) using attachment factor and incubated overnight at 37° C., 5% CO2 in a humidified atmosphere. U87 is a non-HER2 expressing glioblastoma cell line and was grown in a similar way, plated at 1000 cells/well.
[…] Cell viability was measured using the Promega Aqueous Cell-titre-96™ aqueous one solution cell proliferation kit according to manufacturer's instructions. Briefly, the media was removed and 100 μl of complete phenol red free media, pre-combined with MTS reagent, was added to the cells (20 μl of reagent per 100 μl of media). The plates were read on an ELISA plate reader at 490 nm after a 2 hr incubation in the dark (5% CO2, 37° C.).
The data (absorption units) were converted to % cell survival by using the untreated controls as the 100% cell survival and the Triton X-100 controls as the 100% cell death. The average absorption value for the latter was subtracted from all the rest of the data in order to get a suitable baseline. The averages were converted to survival and standard error values were obtained for each n value (as a % cell survival). […] Experiments were repeated at least 3 times for each compound tested and a set or an average of the data was plotted and fitted to obtain a dose response curve.
(§1) The cells were recovered by centrifugation (2 min, 2000 rpm), the supernatant was discarded, and the cells were resuspended in complete McCoy's 5A (5 ml). The cells were then counted using a haemocytometer and diluted accordingly. They were plated at 5000 cells/well (200 μl) using attachment factor and incubated overnight at 37° C., 5% CO2 in a humidified atmosphere. U87 is a non-HER2 expressing glioblastoma cell line [Zitron I M et al (2013) BMC Cancer 13:83] and was grown in a similar way, plated at 1000 cells/well (using DMEM media). BT474 is a HER2 expressing breast cancer cell line [Brockhoff G et al (2007) Cell Prolif 40:488-507] and was grown in a similar way, plated at 7500 cells/well (using RPMI media). NCI-N87 is a HER2 expressing gastric cancer cell line [Yamashita-Kashima Y et al (2013) Oncol. Rep 30:1087-93] and was grown in a similar way, plated at 7500 cells/well (using RPMI media).
[…] Cell viability was measured using the Promega Aqueous Cell-titre-96™ aqueous one solution cell proliferation kit (MTS reagent) according to manufacturer's instructions. Briefly, the media was removed and 100 μl of complete phenol red free media, pre-combined with MTS reagent, was added to the cells (20 μl of reagent per 100 μl of media). The plates were read on an ELISA plate reader at 490 nm after a 2 hr incubation in the dark (5% CO2, 37° C.).
The data (absorption units) were converted to % cell survival by using the untreated controls as the 100% cell survival and the Triton X-100 controls as the 100% cell death. The average absorption value for the latter was subtracted from all the rest of the data in order to get a suitable baseline. The averages were converted to survival and standard error values were obtained for each n value (as a % cell survival).

A further assay concerns BT474 cells. The assay is described as follows: Cell killing assay (MTS), BT474 cells. The following applies: Homo sapiens, BT-474, 96 h, read-out: IC50 pM. In kind it is cell-based, human. Here is the method: as §1
The cells were exposed to the various ADCs diluted in complete media for 96 hours at 37° C., 5% CO2 in a humidified atmosphere. Cell viability was measured using the Promega Aqueous Cell-titre-96™ aqueous one solution cell proliferation kit (MTS reagent) according to manufacturer's instructions. Briefly, the media was removed and 100 μl of complete phenol red free media, pre-combined with MTS reagent, was added to the cells (20 μl of reagent per 100 μl of media). The plates were read on an ELISA plate reader at 490 nm after a 2 hr incubation in the dark (5% CO2, 37° C.).
The data (absorption units) were converted to % cell survival by using the untreated controls as the 100% cell survival and the Triton X-100 controls as the 100% cell death. The average absorption value for the latter was subtracted from all the rest of the data in order to get a suitable baseline. The averages were converted to survival and standard error values were obtained for each n value (as a % cell survival). […] Experiments were repeated at least 3 times for each compound tested and a set or an average of the data was plotted and fitted to obtain a dose-response curve.

The target of the next assay is HER2 (Homo sapiens, UniProt P04626). The assay is described as follows: Biacore SPR binding to immobilised HER2. Particulars: immobilised HER2. On the procedure: The binding affinity against immobilised HER2 target antigen was determined by Biacore SPR compared to the unmodified scFv on a Biacore T200. A standard amine-coupling method was used to prepare all Biacore surfaces (CM5 or CM3), as follows. Flow cells were activated individually by injecting a freshly mixed solution of 0.2M EDC in 0.05 M NHS at 30 μl/min. […] Excess NHS ester was deactivated using a 1 M ethanolamine solution. To measure the kinetics of the antibody and conjugate on the HER2 chip, a […] serial dilution (typically at 5, 2.5, 1.25, 0.6 μg/ml or lower for free antibody and 20, 10, 5, 2.5 μg/ml for the conjugates), was injected for 160 s at 30 μl/min, allowing a 900-s dissociation phase. The dissociation time was extended to 3600 s for the highest concentration. Surfaces were regenerated with 45 s injection of MgCl2 8M.
To evaluate binding ability, manual runs were performed at 30 μl/min with a 60 s injection of the desired compound followed by 60 s waiting time and a 45 s of regeneration at 10 μl/min using MgCl2 8M. All data was analysed using the software, BIAEvaluation.

The mark [1] stands for this setting: SKBr3 Cells (HER2 +++), 4 hours incubation, Table 52.
Where [2] appears, read: SKBr3 Cells (HER2 +++), 4 hours incubation, Table 52, read-out: IC50.
Where [3] appears, read: SKBr3 Cells (HER2 +++), 96 hours incubation, Table 52.
The mark [4] stands for this setting: SKBr3 Cells (HER2 +++), 96 hours incubation, Table 52, read-out: IC50.
The mark [5] stands for this setting: 96 hours exposure, read-out: IC50 nM SKBr3 Cells (HER2+++).

On to `CC[C@H](C)[C@@H]([C@@H](CC(=O)N1CCC[C@H]1[C@H](OC)[C@@H](C)C(=O)N[C@@H](Cc1ccccc1)C(=O)O)OC)N(C)C(=O)[C@@H](NC(=O)[C@H](C(C)C)N(C)C)C(C)C` [Free Auristatin] (NMe2Val-V[Dil][Dolaproine]F-OH), for which the “IC50 μg/ml” value stood at 0.00181 µg/mL (≈ 2.43 nM) with SKBr3 cells (setting [1]) and 0.00081 µg/mL (≈ 1.09 nM) in the assay on SKBr3 cells (setting [3]). Further, the IC50 with SKBr3 cells (setting [2]) was above 100 nM; with SKBr3 cells (setting [4]), above 10 nM.
Take `CC[C@H](C)[C@@H]([C@@H](CC(=O)N1CCC[C@H]1[C@H](OC)[C@@H](C)C(=O)N[C@@H](Cc1ccccc1)C(=O)O)OC)N(C)C(=O)[C@@H](NC(=O)[C@@H](NC)C(C)C)C(C)C` [Free drug MMAF] (H-[NMeV]V[Dil][Dolaproine]F-OH): the IC50 in the assay with BT474 cells is above 10000 pM.

B1: scFv (TCT1067)-MMAF-C5 DAR 5.2 (conjugate)
scFv: SGSGGSGQVQLVQSGAEVKKPGESLKISCKGSGYSFTSYWIAWVRQMPGKGLEYMGLIYPGDSDTKYSPSFQGQVTISVDKSVSTAYLQWSSLKPSDSAVYFCARHDVGYCTDRTCAAWPEWLGVWGQGTLVTVSSGGGGSGGGGSGGGGSQSVLTQPPSVSAAPGQKVTISCSGSSSNIGNNYVSWYQQLPGTAPKLLIYGHTNRPAGVPDRFSGSKSGTSASLAISGFRSEDEADYYCASWDYTLSGWVFGGGTKLTVLMASMTGGQQMG
B1: in the assay with HER2, the association rate was 1.8e+06 M⁻¹ s⁻¹ and the dissociation rate worked out at 3.4e-05 s⁻¹.

B2: scFv (TCT1067)-Auristatin-F-C5 DAR 11.9 (conjugate)
scFv: SGSGGSGQVQLVQSGAEVKKPGESLKISCKGSGYSFTSYWIAWVRQMPGKGLEYMGLIYPGDSDTKYSPSFQGQVTISVDKSVSTAYLQWSSLKPSDSAVYFCARHDVGYCTDRTCAAWPEWLGVWGQGTLVTVSSGGGGSGGGGSGGGGSQSVLTQPPSVSAAPGQKVTISCSGSSSNIGNNYVSWYQQLPGTAPKLLIYGHTNRPAGVPDRFSGSKSGTSASLAISGFRSEDEADYYCASWDYTLSGWVFGGGTKLTVLMASMTGGQQMG
In the assay with HER2, B2 yielded an association rate of 21700 M⁻¹ s⁻¹ and a dissociation rate of 1.76e-05 s⁻¹.

B3: scFv (TCT1067)-Auristatin-F-C5 DAR 5.65 (conjugate)
scFv: SGSGGSGQVQLVQSGAEVKKPGESLKISCKGSGYSFTSYWIAWVRQMPGKGLEYMGLIYPGDSDTKYSPSFQGQVTISVDKSVSTAYLQWSSLKPSDSAVYFCARHDVGYCTDRTCAAWPEWLGVWGQGTLVTVSSGGGGSGGGGSGGGGSQSVLTQPPSVSAAPGQKVTISCSGSSSNIGNNYVSWYQQLPGTAPKLLIYGHTNRPAGVPDRFSGSKSGTSASLAISGFRSEDEADYYCASWDYTLSGWVFGGGTKLTVLMASMTGGQQMG
In the assay with HER2, B3 showed an association rate of 336000 M⁻¹ s⁻¹ and a dissociation rate of 1.35e-05 s⁻¹.

B4: scFv (TCT1067)-Auristatin-F-C5 DAR 3.3 (conjugate)
scFv: SGSGGSGQVQLVQSGAEVKKPGESLKISCKGSGYSFTSYWIAWVRQMPGKGLEYMGLIYPGDSDTKYSPSFQGQVTISVDKSVSTAYLQWSSLKPSDSAVYFCARHDVGYCTDRTCAAWPEWLGVWGQGTLVTVSSGGGGSGGGGSGGGGSQSVLTQPPSVSAAPGQKVTISCSGSSSNIGNNYVSWYQQLPGTAPKLLIYGHTNRPAGVPDRFSGSKSGTSASLAISGFRSEDEADYYCASWDYTLSGWVFGGGTKLTVLMASMTGGQQMG
In the assay with HER2, B4 displayed an association rate of 556000 M⁻¹ s⁻¹ and a dissociation rate of 1.82e-05 s⁻¹.

B5: ScFv (TCT1067)-AF-C5 DAR 5.3 (conjugate)
scFv: SGSGGSGQVQLVQSGAEVKKPGESLKISCKGSGYSFTSYWIAWVRQMPGKGLEYMGLIYPGDSDTKYSPSFQGQVTISVDKSVSTAYLQWSSLKPSDSAVYFCARHDVGYCTDRTCAAWPEWLGVWGQGTLVTVSSGGGGSGGGGSGGGGSQSVLTQPPSVSAAPGQKVTISCSGSSSNIGNNYVSWYQQLPGTAPKLLIYGHTNRPAGVPDRFSGSKSGTSASLAISGFRSEDEADYYCASWDYTLSGWVFGGGTKLTVLMASMTGGQQMG
As for B5, the “IC50 μg/ml” value with SKBr3 cells (setting [1]) is 0.00181 µg/mL; with SKBr3 cells (setting [3]), 0.00081 µg/mL. Besides, the IC50 was found to be 0.0644 nM in the assay on SKBr3 cells (setting [2]) and 0.0288 nM in the assay with SKBr3 cells (setting [4]).

B6: scFv (TCT)-P5C5, DAR = 5 (conjugate)
scFv: SGSGGSGQVQLVQSGAEVKKPGESLKISCKGSGYSFTSYWIAWVRQMPGKGLEYMGLIYPGDSDTKYSPSFQGQVTISVDKSVSTAYLQWSSLKPSDSAVYFCARHDVGYCSSSNCAAWPEYFQHWGQGTLVTVSSGGGGSGGGGSGGGGSQSVLTQPPSVSAAPGQKVTISCSGSSSNIGNNYVSWYQQLPGTAPKLLIYGHTNRPAGVPDRFSGSKSGTSASLAISGFRSEDEADYYCAAWDDSLSGWVFGGGTKLTVLMASMTGGQQMG
Consider B6, for which, in the assay on SKBr3 cells (96 hours exposure), the “IC50 μg/ml SKBr3 Cells (HER2+++)” value was determined as 1.33 ± 0.1 µg/mL. In addition, the IC50 in the assay on SKBr3 cells (setting [5]) amounted to 47.5 ± 0.36 nM.

B7: scFv (TCT)-P5C5, DAR = 8 (conjugate)
scFv: SGSGGSGQVQLVQSGAEVKKPGESLKISCKGSGYSFTSYWIAWVRQMPGKGLEYMGLIYPGDSDTKYSPSFQGQVTISVDKSVSTAYLQWSSLKPSDSAVYFCARHDVGYCSSSNCAAWPEYFQHWGQGTLVTVSSGGGGSGGGGSGGGGSQSVLTQPPSVSAAPGQKVTISCSGSSSNIGNNYVSWYQQLPGTAPKLLIYGHTNRPAGVPDRFSGSKSGTSASLAISGFRSEDEADYYCAAWDDSLSGWVFGGGTKLTVLMASMTGGQQMG
Turning to B7, the “IC50 μg/ml SKBr3 Cells (HER2+++)” value in the assay with SKBr3 cells (96 hours exposure) is 0.8 ± 0.1 µg/mL. In addition, in the assay on SKBr3 cells (setting [5]), the IC50 was 28 ± 0.36 nM.

The values are drawn from patent US11202837B2, “Biological materials and uses thereof” (Antikor Biopharma Limited, priority 2014, dated 2021).
